The data set deals with the molecule itself. Briefly: crystal structure.

As for GNYNVF [hnRNPA2 mutant core segment GNYNVF (residues 286-291 with D290V)], the binding result is “binds”.
